Assay [1] has as its target T1, IL-33 mutant protein V67A (human, UniProt O95760 112-270).
T1 construct: Prokaryotic expression
T1 chain: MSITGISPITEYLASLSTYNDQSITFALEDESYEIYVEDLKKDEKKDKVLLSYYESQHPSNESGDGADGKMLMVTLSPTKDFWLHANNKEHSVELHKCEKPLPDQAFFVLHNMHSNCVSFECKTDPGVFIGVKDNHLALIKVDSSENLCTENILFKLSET
Kind of assay: ELISA as Example 9; row V67A. The procedure:
(§1) SA protein was diluted to 2 μg/mL to coat ELISA plate at 100 μL/well overnight at 4° C. The plate was washed with PBST (PBS containing 0.05% Tween20) for 3 times, and blocked with 2% BSA prepared in PBS at 200 μL/well, at room temperature for 2 h. After the plate was washed twice with PBST, IL-33-his-biotin protein was diluted to 1 μg/mL with 1% BSA prepared in PBST, and was added to ELISA plate at 100 μL/well. The plate was incubated at room temperature for 1 h, and each monoclonal antibody was diluted with 1% BSA prepared in PBST in a 3-fold gradient. The highest concentration of antibody was 10 μg/mL, and the antibody was diluted for 12 gradients. Each diluted monoclonal antibody was added to ELISA wells with 100 μL/well, and the plate was incubated at room temperature for 1 h. Each sample was added to duplicate wells in parallel. The plate was washed with PBST for 3 times, and HRP-anti human IgG Fc secondary antibody prepared with PBST was diluted at an appropriate ratio, and was added to ELISA wells at 100 μL/well. […] Each reaction solution was shaken uniformly and OD450 nm was read on a microplate reader. The data was analyzed and EC₅₀ was calculated.
(§2) Subsequently, according to the experimental method of Example 9, the affinity of the above mutant proteins to 874F7-Hu1 was determined, and IL-33 proteins (WT-1, WT-2, WT-3, and WT-4) without any mutation were set as controls.
For orientation: ELISA stands for enzyme-linked immunosorbent assay.

Assay [2] has as its target T2, IL-33 mutant protein E55A (human, UniProt O95760 112-270).
T2 construct: Prokaryotic expression
T2 chain: T1 chain with E55A, A67V
Kind of assay: ELISA as Example 9; row E55A. The protocol:
as §1, §2

Assay [3] concerns the target T3, IL-33 mutant protein K70A (human, UniProt O95760 112-270).
T3 construct: Prokaryotic expression
T3 chain: T1 chain with A67V, K70A
As to the kind of experiment: ELISA as Example 9; row K70A against WT-3. The procedure: as §1, §2

Assay [4] concerns the target T3, IL-33 mutant protein K70A. Kind of assay: ELISA as Example 9; row K70A. The protocol: as §1, §2
Assay [5] has as its target T4, IL-33 mutant protein E44A (human, UniProt O95760 112-270).
T4 construct: Prokaryotic expression
T4 chain: T1 chain with E44A, A67V
Kind of assay: ELISA as Example 9; row E44A. The procedure:
as §1, §2

Assay [6] concerns the target T5, IL-33 mutant protein H58A (human, UniProt O95760 112-270).
T5 construct: Prokaryotic expression
T5 chain: T1 chain with H58A, A67V
Kind of assay: ELISA as Example 9; row H58A against WT-1. The protocol:
as §1, §2

For assay [7], the target named is T6, IL-33 mutant protein P59A (human, UniProt O95760 112-270).
T6 construct: Prokaryotic expression
T6 chain: T1 chain with P59A, A67V
As to the kind of experiment: ELISA as Example 9; row P59A against WT-1. The procedure: as §1, §2

In assay [8] the target is T7, IL-33 protein without any mutation (WT) (human, UniProt O95760 112-270).
T7 construct: Control of the alanine scan (four runs WT-1 to WT-4); also called WT-1; WT-2
T7 sequence: T1 chain with A67V
Kind of assay: ELISA as Example 9; row WT-2, the reference itself. The procedure:
as §1, §2

The target in assay [9] is T8, IL-33 mutant protein Y53A (human, UniProt O95760 112-270).
T8 construct: Prokaryotic expression
T8 chain: T1 chain with Y53A, A67V
As to the kind of experiment: ELISA as Example 9; row Y53A against WT-2. The protocol: as §1, §2

Changes are numbered by the printed parent chain.

From patent US20230399394A1 (SUNSHINE GUOJIAN PHARMACEUTICAL SHANGHAI, published 2023) come the findings set out here.

B1: 874F7-Hu1 (antibody, human IgG4 S228P, kappa)
heavy: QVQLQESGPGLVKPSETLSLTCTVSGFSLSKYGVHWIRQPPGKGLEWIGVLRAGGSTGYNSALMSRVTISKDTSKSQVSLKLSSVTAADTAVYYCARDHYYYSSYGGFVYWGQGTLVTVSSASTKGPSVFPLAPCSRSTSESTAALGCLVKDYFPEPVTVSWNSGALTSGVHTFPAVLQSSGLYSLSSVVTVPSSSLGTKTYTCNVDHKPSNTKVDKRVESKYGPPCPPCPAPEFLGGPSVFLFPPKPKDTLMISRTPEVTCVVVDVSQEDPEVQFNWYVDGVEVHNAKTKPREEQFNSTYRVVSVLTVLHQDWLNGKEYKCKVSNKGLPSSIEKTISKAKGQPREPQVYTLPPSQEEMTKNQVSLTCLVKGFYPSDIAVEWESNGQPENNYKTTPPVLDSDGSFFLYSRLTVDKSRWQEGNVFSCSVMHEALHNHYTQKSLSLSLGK
light: DIQMTQSPSSVSASVGDRVTITCLASQTIGAWLAWYQQKPGKSPKLLIYAATRLADGVPSRFSGSGSGTDFTLTISSLQPEDFATYYCQQLDSSPYTFGQGTKVEIKRTVAAPSVFIFPPSDEQLKSGTASVVCLLNNFYPREAKVQWKVDNALQSGNSQESVTEQDSKDSTYSLSSTLTLSKADYEKHKVYACEVTHQGLSSPVTKSFNRGEC
notes: also called 874F7-Hul; humanized antibody 874F7-Hu1
As for B1, the EC50 (usually the concentration that produces a half-maximal response) in assay [1] came out at 0.11 nM; in assay [2] it was 0.33 nM; in assay [4], 0.11 nM; in [5], 0.13 nM. Moreover, the Affinity decline ratio in assay [3] came out at 0.6 fold; in assay [6] it was 1.9 fold; in [7], 0.5 fold; in [8], 1 fold; in assay [9], 3.3 fold.
